Common to all, as to format: biochemical
For data set [1], the system named is O=C(c1ccc(Cl)cc1)c1ccccn1. The data set is described as follows: Kinetic analysis of KpADH mutant M6 with CPMK. The following applies: other: M6, NADPH, pH 7.0, 30° C. As for the experimental part:
In an embodiment of the present disclosure, the mutant includes the substitution of glycine for glutamic acid at position 214 of the amino acid sequence shown in SEQ ID No. 2, the substitution of cysteine for serine at position 237, the substitution of asparaginate for glutamine at position 136, the substitution of glycine for serine at position 196, and the substitution of valine for phenylalanine at position 161, which is named M6.
(§1) Adopting a total reaction system of 200 μL including: 1.0 mM NADPH, 1.0 mM substrate CPMK and sodium phosphate buffer (PBS, 100 mM, pH 7.0), fully and evenly mixing, maintaining at 30° C. for 2 min, adding an appropriate amount of enzyme solution, and detecting the change in light absorption at 340 nm.
(§2) The enzyme activity was calculated by the following formula: Enzyme activity (U)=EW×V×10^3/(6220×1);
(§3) in the formula, EW is the change in absorbance at 340 nm in 1 min; V is the volume of a reaction solution in mL; 6220 is the molar extinction coefficient of NADPH in L/(mol·cm); and 1 is the optical path distance in cm. One activity unit (U) corresponds to the amount of enzyme required to catalyze the oxidation of 1 μmol NADPH per minute under the above conditions.
(§4) A column used for purification was a nickel affinity column HisTrap FF crude, and purification was achieved through affinity chromatography using a histidine tag on recombinant protein. The nickel column was equilibrated with a solution A first, a crude enzyme solution was loaded, a penetrating peak was further eluted off using the solution A, and after equilibrium, a solution B (20 mM sodium phosphate, 500 mM NaCl, and 1000 mM imidazole, pH 7.4) was used for gradient elution to elute off the recombinant protein bound to the nickel column, so as to obtain the recombinant alcohol dehydrogenase mutant. The purified protein was subjected to activity measurement (CPMK as substrate, and NADPH as coenzyme) and SDS-PAGE analysis. […] The purified alcohol dehydrogenase protein was then replaced into a Tris-HCl (100 mM, pH 7.0) buffer using a Hi Trap Desalting column (GE Healthcare).
(§5) The activity of KpADH at different substrate concentrations and coenzyme concentrations was determined, and a double reciprocal curve was made based on the reciprocal of activity and substrate concentration to calculate kinetic parameters.

Data set [2] concerns O=C(c1ccc(Cl)cc1)c1ccccn1. Kind of data set: Kinetic analysis of KpADH mutant M1 with CPMK. The following applies: other: M1, NADPH, pH 7.0, 30° C. As to the method:
In an embodiment of the present disclosure, the mutant includes the substitution of glycine for glutamic acid at position 214 of the alcohol dehydrogenase with the amino acid sequence shown in SEQ ID No. 2, which is named M1.
as §1, §2, §3, §4, §5

Data set [3] concerns O=C(c1ccc(Cl)cc1)c1ccccn1. Kind of data set: Kinetic analysis of KpADH mutant M4 with CPMK. The following applies: other: M4, NADPH, pH 7.0, 30° C. As for the experimental part:
In an embodiment of the present disclosure, the mutant includes the substitution of glycine for glutamic acid at position 214 of the amino acid sequence shown in SEQ ID No. 2, the substitution of cysteine for serine at position 237, and the substitution of asparaginate for glutamine at position 136, which is named M4.
as §1, §2, §3, §4, §5

Data set [4] deals with T1, alcohol dehydrogenase KpADH mutant M9 (S196G/S237C of SEQ ID No. 1) (Vanderwaltozyma polyspora, UniProt A7TM80, S196G/S237C).
T1 construct: control mutant M9
Kind of data set: Kinetic analysis of KpADH mutant M9 (control example) with CPMK. The following applies: NADPH, pH 7.0, 30° C. As for the experimental part:
In an embodiment of the present disclosure, the mutant includes the substitution of glycine for serine at position 196 of the alcohol dehydrogenase with the amino acid sequence shown in SEQ ID No. 1, and the substitution of cysteine for serine at position 237, which is named M9.
as §1, §2
(§6) in the formula, EW is the change in absorbance at 340 nm in 1 min; V is the volume of a reaction solution in mL; 6220 is the molar extinction coefficient of NADPH in L/(mol·cm); and 1 is the optical path distance in cm. One activity unit (U) corresponds to the amount of enzyme required to catalyze the oxidation of 1 μmol NADPH per minute under the above conditions. […]
as §5

Data set [5] has as its target T2, alcohol dehydrogenase KpADH mutant M8 (Q136N/F161V of SEQ ID No. 1) (Vanderwaltozyma polyspora, UniProt A7TM80, F161V/Q136N).
T2 construct: control mutant M8
Kind of data set: Kinetic analysis of KpADH mutant M8 (control example) with CPMK. The following applies: NADPH, pH 7.0, 30° C. As for the experimental part: In an embodiment of the present disclosure, the mutant includes the substitution of asparaginate for glutamine at position 136 of alcohol dehydrogenase with an amino acid sequence shown in SEQ ID No. 1, and the substitution of valine for phenylalanine at position 161, which is named M8.
as §1, §2, §6, §5

Data set [6] has as its target T3, alcohol dehydrogenase KpADH mutant M7 (E214V/T215S of SEQ ID No. 2) (Vanderwaltozyma polyspora, UniProt A7TM80, E214V/T215S).
T3 construct: mutant M7
Kind of data set: Kinetic analysis of KpADH mutant M7 with CPMK. The following applies: NADPH, pH 7.0, 30° C. As to the method: In an embodiment of the present disclosure, the mutant includes the substitution of valine for glutamic acid at position 214 of the amino acid sequence shown in SEQ ID No. 2, and the substitution of serine for threonine at position 215, which is named M7.
as §1, §2, §6, §5

For data set [7], the target named is T4, alcohol dehydrogenase KpADH mutant M5 (E214G/S237C/Q136N/S196G of SEQ ID No. 2) (Vanderwaltozyma polyspora, UniProt A7TM80, E214G/Q136N/S196G/S237C).
T4 construct: mutant M5
The data set is described as follows: Kinetic analysis of KpADH mutant M5 with CPMK. The following applies: NADPH, pH 7.0, 30° C. As to the method: In an embodiment of the present disclosure, the mutant includes the substitution of glycine for glutamic acid at position 214 of the amino acid sequence shown in SEQ ID No. 2, the substitution of cysteine for serine at position 237, the substitution of asparaginate for glutamine at position 136, and the substitution of glycine for serine at position 196, which is named M5.
as §1, §2, §6, §5

Data set [8] has as its target T5, alcohol dehydrogenase KpADH, wild type, SEQ ID No. 2 (Vanderwaltozyma polyspora, UniProt A7TM80).
T5 sequence (A7TM80 1-342): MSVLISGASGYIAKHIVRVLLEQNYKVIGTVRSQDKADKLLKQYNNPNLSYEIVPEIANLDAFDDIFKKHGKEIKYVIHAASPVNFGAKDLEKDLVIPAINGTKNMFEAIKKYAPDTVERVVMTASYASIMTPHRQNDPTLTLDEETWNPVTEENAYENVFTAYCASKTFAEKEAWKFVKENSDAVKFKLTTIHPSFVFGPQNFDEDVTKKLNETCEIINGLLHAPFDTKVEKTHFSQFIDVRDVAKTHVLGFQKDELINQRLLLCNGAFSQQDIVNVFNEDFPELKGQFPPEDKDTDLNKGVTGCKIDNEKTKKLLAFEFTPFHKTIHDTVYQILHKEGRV
Kind of data set: Kinetic analysis of KpADH wild type with CPMK. The following applies: NADPH, pH 7.0, 30° C. As for the experimental part: as §1, §2, §3, §4, §5

Data set [9] relates to O=C(c1ccc(Cl)cc1)c1ccccn1. The data set is described as follows: Kinetic analysis of KpADH mutant M3 with CPMK. The following applies: other: M3, NADPH, pH 7.0, 30° C. As for the experimental part:
In an embodiment of the present disclosure, the mutant includes the substitution of glycine for glutamic acid at position 214 of the alcohol dehydrogenase with the amino acid sequence shown in SEQ ID No. 2, and the substitution of cysteine for serine at position 237, which is named M3.
as §1, §2, §3, §4, §5

The values that follow come from patent US10865390B2, “Alcohol dehydrogenase mutant and application thereof in synthesis of diaryl chiral alcohols” (Jiangnan University, priority 2018, dated 2020).

As for “alcohol dehydrogenase KpADH mutant M6 (E214G/S237C/Q136N/S196G/F161V of SEQ ID No. 2) (Vanderwaltozyma polyspora DSM 70294; E214G/F161V/Q136N/S196G/S237C)”, in [1], the Km amounted to 1120 µM, the Vmax is 25.2 µmol/min/mg, the turnover number (kcat) stood at 20.1 s⁻¹ and the kcat/Km was found to be 17900 M⁻¹ s⁻¹.
Take “alcohol dehydrogenase KpADH mutant M1 (E214G of SEQ ID No. 2) (Vanderwaltozyma polyspora DSM 70294; E214G)”: in data set [2], the Michaelis constant (Km) amounted to 520 µM, the Vmax was determined as 11.1 µmol/min/mg, the catalytic constant (kcat) was 7.32 s⁻¹ and the kcat/Km was determined as 14100 M⁻¹ s⁻¹.
In the case of “alcohol dehydrogenase KpADH mutant M4 (E214G/S237C/Q136N of SEQ ID No. 2) (Vanderwaltozyma polyspora DSM 70294; E214G/Q136N/S237C)”, in [3], the Km was found to be 861 µM, the maximum rate (Vmax) turned out to be 10.2 µmol/min/mg, the catalytic constant (kcat) came to 6.76 s⁻¹ and the specificity constant (kcat/Km) turned out to be 7850 M⁻¹ s⁻¹.
Take `O=C(c1ccc(Cl)cc1)c1ccccn1` [CPMK, (4-chlorophenyl)-(pyridin-2-yl)-methanone]: the Kcat in [4] is 17.6 s⁻¹; in data set [5], 14.8 s⁻¹; in data set [6], 14.2 s⁻¹; in [7] it was 17.0 s⁻¹; in data set [8], 11.8 s⁻¹. In addition, the Vmax was found to be 26.5 µmol/min/mg in data set [4]; 22.3 µmol/min/mg in data set [5]; 21.3 µmol/min/mg in data set [6]; 21.3 µmol/min/mg in data set [7]; 17.9 µmol/min/mg in [8]. For the same molecule, the Michaelis-Menten constant (Km) in data set [8] was 410 µM.
As to “alcohol dehydrogenase KpADH mutant M3 (E214G/S237C of SEQ ID No. 2) (Vanderwaltozyma polyspora DSM 70294; E214G/S237C)”, in data set [9], the Km came to 632 µM, the maximum rate (Vmax) amounted to 9.32 µmol/min/mg, the turnover number (kcat) stood at 6.16 s⁻¹ and the catalytic efficiency (kcat/Km) worked out at 9740 M⁻¹ s⁻¹.

In general, Km refers to the concentration of substrate that gives half-maximal velocity. Usually Vmax stands for the rate approached at saturating substrate. For orientation: kcat means the maximal rate divided by the concentration of active sites. One may read the kcat/Km as the turnover number divided by the Michaelis constant.
